This note sets out measurements from US20260109774A1 (JUNO THERAPEUTICS, published 2026).

To fix the notation:
T1: human B-cell maturation antigen (BCMA) on cells (human, UniProt Q02223 1-184)
T1 construct: Recombinant on HEK293 or K562 cells, or endogenous on cell lines (H929, RPMI 8226, OPM2, MM1S, Daudi); also called hBCMA; huBCMA
T1 chain: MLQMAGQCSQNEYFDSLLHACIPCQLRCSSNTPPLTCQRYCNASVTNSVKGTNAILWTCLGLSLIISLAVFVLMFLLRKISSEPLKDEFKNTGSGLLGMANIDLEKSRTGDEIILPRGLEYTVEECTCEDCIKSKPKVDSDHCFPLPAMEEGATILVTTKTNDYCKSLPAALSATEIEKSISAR

B1: BCMA-16 scFv (scFv)
scFv: EVQLVQSGPEVKKPGTSVKVSCKASGFTFTSSAMQWVRQARGQRLEWIGWIVVGSGNTNYAQKFQERVTITRDMSTSTAYMELSSLRSEDTAVYYCAAAPYYDILTGYYLWGQGTLVTVSSGGGGSGGGGSGGGGSQSALTQPPSASGTPGQRVTISCSGSGSNIGSNDVSWYQQIPGTAPKLLIYWNDQRPSGVPDRFSGSKSGTSASLAISGLQSEDEADYYCASWDDSLSGWVFGGGTKLTVL
B2: BCMA-7 scFv (scFv)
scFv: QVQLVQSGGGLVQPGRSLRLSCTASGFTFGDYAMSWFRQAPGKGLEWVGFIRSKAYGGTTEYAASVKGRFTISRDDSKSIAYLQMNSLKTEDTAVYYCAAWSAPTDYWGQGTLVTVSSGGGGSGGGGSGGGGSVIQLTQSPSSLSASVGDRVTITCRASQDIGDYLAWFQQRPGKAPKSLIYVASTLQSGVPSRFSGSGSGTHFTLTINSLQPEDFATYYCQQYHSHPWTFGPGTKVDIK
B3: BCMA-2 scFv (scFv)
scFv: EVQLVESGGGLVKPGGSLRLSCAASGFTFSDYYMSWIRQAPGKGLEWVSYISSSGSTIYYADSVKGRFTISRDNAKNSLYLQMNSLRAEDTAVYYCAKVDGPPSSDIWGQGTMVTVSSGGGGSGGGGSGGGGSEIVMTQSPATLSVSPGETATLSCRASQSIKTNLAWYQQKPGQAPRLLIYAASTRATGIPDRFSGSGSGTDFTLTITRLEPEDFAVYYCQQYGSSPTFGRGTKLEIK
B4: BCMA-21 scFv (scFv)
scFv: EVQLVESGGGLVKPGGSLKLSCAASGFTFSDYYMSWIRQAPGKGLEWVSYISSSGSTIYYADSVKGRFTISRDNAKNSLYLQMNSLRAEDTAVYYCAKVDGGYTEDYWGQGTLVTVSSGGGGSGGGGSGGGGSQSVLTQPPSASGTPGQRVTISCSGSGSNIGSNDVSWYQQIPGTAPKLLIYWNDQRPSGVPDRFSGSKSGISASLAISGLRSEDEADYYCAAWDDSLNGYVFGTGTKVTVL
B5: BCMA-6 scFv (scFv)
scFv: QVQLVQSGGGLVQPGRSLRLSCTASGFTFGDYAMSWFRQAPGKGLEWVGFIRSKAYGGTTEYAASVKGRFTISRDDSKSIAYLQMNSLKTEDTAVYYCAAWSAPTDYWGQGTLVTVSSGGGGSGGGGSGGGGSDIVMTQSPSSLSVSVGERVTITCRASQSISNSLAWYKQRPGEAPKLLIHAASNVEDGVPSRFSGRGSGTVFTLAISNVQPEDFATYYCQQSHMYPPTFGGGTKVEIK
B6: BCMA-17 scFv (scFv)
scFv: QVQLVQSGGGLVKPGGSLRLSCAASGFTFSDYYMSWIRLAPGKGLEWVSYISSSGSTIYYADSVKGRFTISRDNAKNSLYLQMNSLRAEDTAVYYCAREADSSADYWGQGTLVNVSSGGGGSGGGGSGGGGSQPVLTQPPSVSVAPGKTAMITCGGNNIGFKGVQWYQQKTGQAPVLVVYDDSDRPSGIPERFSGSNSGNTATLTISRVEAGDEADYYCQVWDSASDHWVFGGGTKLTVL
B7: BCMA-33 scFv (scFv)
scFv: QVQLVQSGGGLVKPGGSLRLSCAASGFTFSDYYMSWIRQAPGKGLEWVSYISGSGSTIYYADSVKGRFTISRDNAKNSLYLQMNSLRAEDTAVYYCAREADSSADYWGQGTLVNVSSGGGGSGGGGSGGGGSQPVLTQPPSVSVAPGKTAMITCGGNNIGFKGVQWYQQKTGQAPVLVVYDDSDRPSGIPERFSGSNSGNTATLTISRVEAGDEADYYCQVWDSASDHWVFGGGTKLTVL
B8: BCMA-15 scFv (scFv)
scFv: QVQLLESGGGLVKPGGSLRLSCAASGFTFSSYGMHWVRQAPGKGLEWVAVISYDGSNKYYADSVKGRFTISRDNSKNTLYLQMNSLRAEDTAVYYCAKDQYSSSAQRADFDYWGQGTLVTVSSGGGGSGGGGSGGGGSQSVLTQPPSASGTPGQRVTISCSGSGSNIGSNDVSWYQQIPGTAPKLLIYWNDQRPSGVPDRFSGSKSGTSASLVISGLRSEDEADYYCAAWDDSLSGWVFGGGTKLTVL
B9: BCMA-12 scFv (scFv)
scFv: EVQLVESGGGLVKPGGSLRLSCAASGFTFSDYYMSWIRQAPGKGLEWVSYISSSGSTIYYADSVKGRFTISRDNAKNSLYLQMNSLRAEDTAVYYCAKVDGPPSFDIWGQGTMVTVSSGGGGSGGGGSGGGGSQSALTQPPSVSAAPGQKVTISCSGSRSNIGNNYVSWYQQLPGTAPKLLIYDNAKRPSGIPDRFSGSKSGTSATLDIAGLQTGDEADYYCQVWDSSSDHWVFGGGTKLTVL
B10: BCMA-4 scFv (scFv)
scFv: QVQLVQSGGGLVQPGRSLRLSCTASGFTFGDYAMSWFRQAPGKGLEWVGFIRSKAYGGTTEYAASVKGRFTISRDDSKSIAYLQMNSLKTEDTAVYYCAAWSAPTDYWGQGTLVTVSSGGGGSGGGGSGGGGSAIRMTQSPSSLSASLGDRVTITCRASQDIRNSLAWYQQRPGKAPKLLLSAASRLESGVPSRFSGTTSGAEYALSISSLQPEDVASYFCQQYYSLPLSFGGGTKVEIK
B11: BCMA-8 scFv (scFv)
scFv: QVQLVQSGGGLVQPGRSLRLSCTASGFTFGDYAMSWFRQAPGKGLEWVGFIRSKAYGGTTEYAASVKGRFTISRDDSKSIAYLQMNSLKTEDTAVYYCAAWSAPTDYWGQGTLVTVSSGGGGSGGGGSGGGGSDIVMTQSPDSLAVSLGERATINCKSSQSVLYSSNNKNYLAWYQQKPGQPPKLLIYWASTRESGVPDRFSGSGSGTDFTLTISSLQAEDVAVYYCQQYYSTPYTFGQGTKLEIK
B12: BCMA-3 scFv (scFv)
scFv: QVQLVQSGGGLVQPGRSLRLSCTASGFTFGDYAMSWFRQAPGKGLEWVGFIRSKAYGGTTEYAASVKGRFTISRDDSKSIAYLQMNSLKTEDTAVYYCAAWSAPTDYWGQGTLVTVSSGGGGSGGGGSGGGGSDIVMTQSPDSLVVSLGERATINCKSSQSVLHSSNNKNYLAWYQQKPGQPPKLLIYWASTRESGVPDRFSGSGSGTDFTLTISSLQAEDVAVYYCQQYYTTPLTFGGGTKVEIK
B13: BCMA-31 scFv (scFv)
scFv: EVQLVQSGGGLVQPGRSLRLSCTASGFTFGDYAMSWFRQAPGKGLEWVGFIRSKAYGGTTEYAASVKGRFTISRDDSKSIAYLQMNSLKTEDTAVYYCAAWSAPTDYWGQGTLVTVSSGGGGSGGGGSGGGGSDVVMTQSPDSLAVSLGERATISCKSSQSVLNSSNNKNYVAWYKQKPGQPPKLVISWASTRESGVPDRFSGSGSGTDFTLTISSLQAEDVAVYYCQQYYSTPYTFGQGTKLDIK
B14: BCMA-44 scFv (scFv)
scFv: EVQLVQSGGGLVQPGRSLRLSCTASGFTFGDYAMSWFRQAPGKGLEWVGFIRSKAYGGTTEYAASVKGRFTISRDDSKSIAYLQMNSLKTEDTAVYYCAAWSAPTDYWGQGTLVTVSSGGGGSGGGGSGGGGSDVVMTQSPDSLAVSLGERATINCKSSQNLLYSSNNKNYLAWYQQKPGQPPKLLIYWASTRESGVPDRFSGSGSGTDFTLTISSLQAEDVAVYYCQQYYSSPYTFGQGTKLEIK
B15: BCMA-46 scFv (scFv)
scFv: QVQLVQSGGGLVQPGRSLRLSCTASGFTFGDYAMSWFRQAPGKGLEWVGFIRSKAYGGTTEYAASVKGRFTISRDDSKSIAYLQMNSLKTEDTAVYYCAAWSAPTDYWGQGTLVTVSSGGGGSGGGGSGGGGSDIVMTQSPDSLVVSLGERATINCKSSQSVLHSSNNKNYLAWYQQKPGQPPKLLIYWASTRESGVPDRFSGSGSGTDFTLTISSLQAEDVAVYYCQQYYTTPLTFGGGTKVEIK
B16: BCMA-11 scFv (scFv)
scFv: QVQLVQSGGGLVQPGRSLRLSCAASGFTFDDYAMHWVRRAPGKGLEWVSGISWNSGSIGYADSVKGRFTISRDNAKNSLYLQMNSLRAEDTAVYYCARDLGPDYDPDAFDIWGQGTMVTVSSGGGGSGGGGSGGGGSQLVLTQPPSASGTPGQRVTISCSGSSSNIGSNAVNWYQQLPGTAPEVLIYNSHQRPSGVPDRFSGSKSGTSASLAINGLQSEDEADYYCAAWDDSLRGYVFGTGTKLTVL
B17: BCMA-22 scFv (scFv)
scFv: EVQLVESGGGLVKPGGSLRLSCAASGFTFSDYYMSWIRQAPGKGLEWVSYISSSGSTIYYADSVKGRFTISRDNAKNSLYLQMNSLRAEDTAVYYCAKVDGDYTEDYWGQGTLVTVSSGGGGSGGGGSGGGGSQSALTQPASVSGSPGQSITISCTGSSSDVGKYNLVSWYQQPPGKAPKLIIYDVNKRPSGVSNRFSGSKSGNTATLTISGLQGDDEADYYCCSYGGSRSYVFGTGTKVTVL
B18: BCMA-40 scFv (scFv)
scFv: EVQLVESGGGLVKPGGSLRLSCAASGFTFSDYYMSWIRQAPGKGLEWVSYISSSGSTIYYADSVKGRFTISRDNAKNSLYLQMNSLRAEDTAVYYCAKVDGDYTEDYWGQGTLVTVSSGGGGSGGGGSGGGGSQSALTQPASVSGSPGQSITISCTGSSSDVSKYNLVSWYQQPPGKAPKLIIYDVNKRPSGVSNRFSGSKSGNTATLTISGLQGDDEADYYCCSYGGSRSYVFGTGTKLTVL
B19: BCMA-18 scFv (scFv)
scFv: EVQLLESGGGLVQPGGSLRLSCAASGFTFSSYWMSWHRQAPGKGPEWVAHINQDGSEKYYVDSVKGRFTISRDNAESSLYLQMNSLRAEDTAVYYCARWLAVTNWGQGTLVTVSSGGGGSGGGGSGGGGSQSVLTQPPSASGTPGQRVTISCSGSGSNIGSNDVSWYQQIPGTAPKLLIYWNDQRPSGVPDRFSGSKSGTSASLAISGLRSEDEADYYCAAWDDSLNGWVFGGGTKLTVL

The test addresses T1, human B-cell maturation antigen (BCMA) …. The experiment in a line: flow cytometry on BCMA-expressing HEK293 cells vs control cells, crude lysate or bacterial supernatant; clone listed in Table E2. On the procedure:
Specific binding of resulting scFv clones to BCMA-expressing HEK293 cells, as compared to control cells not expressing BCMA, was assessed by flow cytometry either with in vitro translated crude cell lysate or with bacterially-produced supernatant.
(In flow cytometry, cells or beads pass a laser one at a time.)
B1: the binding result is on record as “binds”.

Consider B2, for which the binding result was “binds”.

Consider B3, for which the binding result is given as “binds”.

On to B4, for which the binding result is listed as “binds”.

Consider B5, for which the binding result was “binds”.

Regarding B6, the binding result is given as “binds”.

For the molecule B7, the binding result was “binds”.

As to B8, the binding result was “binds”.

As for B9, the binding result is reported as “binds”.

For the molecule B10, the binding result is on record as “binds”.

On to B11, for which the binding result is reported as “binds”.

Take B12: the binding result is “binds”.

On to B13, for which the binding result is reported as “binds”.

In the case of B14, the binding result was “binds”.

Consider B15, for which the binding result is listed as “binds”.

On to B16, for which the binding result is on record as “binds”.

With B17, the binding result is “binds”.

Take B18: the binding result was “binds”.

In the case of B19, the binding result is reported as “binds”.
